The target of test [1] is T1, RESTV GPdTM (Reston virus (RESTV), UniProt Q66799 34-638).
T1 sequence: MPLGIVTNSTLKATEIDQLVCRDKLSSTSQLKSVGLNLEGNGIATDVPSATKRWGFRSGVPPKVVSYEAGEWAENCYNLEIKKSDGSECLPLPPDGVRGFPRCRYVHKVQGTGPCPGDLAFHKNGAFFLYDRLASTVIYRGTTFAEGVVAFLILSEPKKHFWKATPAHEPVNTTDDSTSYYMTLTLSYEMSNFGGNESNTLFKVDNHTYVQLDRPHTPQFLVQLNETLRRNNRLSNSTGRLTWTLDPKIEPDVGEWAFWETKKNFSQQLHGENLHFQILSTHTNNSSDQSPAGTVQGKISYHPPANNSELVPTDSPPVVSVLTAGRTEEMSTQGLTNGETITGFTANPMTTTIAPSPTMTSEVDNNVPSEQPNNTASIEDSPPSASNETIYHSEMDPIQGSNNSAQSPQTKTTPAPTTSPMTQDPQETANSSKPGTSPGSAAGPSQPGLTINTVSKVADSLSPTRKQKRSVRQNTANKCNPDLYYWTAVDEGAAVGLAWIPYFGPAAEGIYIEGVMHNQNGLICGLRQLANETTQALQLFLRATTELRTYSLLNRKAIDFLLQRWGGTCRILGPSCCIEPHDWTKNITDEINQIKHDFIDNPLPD

For test [2], the target named is T2, EBOV GPdTM (Ebola virus (EBOV), UniProt Q05320 33-637).
T2 sequence: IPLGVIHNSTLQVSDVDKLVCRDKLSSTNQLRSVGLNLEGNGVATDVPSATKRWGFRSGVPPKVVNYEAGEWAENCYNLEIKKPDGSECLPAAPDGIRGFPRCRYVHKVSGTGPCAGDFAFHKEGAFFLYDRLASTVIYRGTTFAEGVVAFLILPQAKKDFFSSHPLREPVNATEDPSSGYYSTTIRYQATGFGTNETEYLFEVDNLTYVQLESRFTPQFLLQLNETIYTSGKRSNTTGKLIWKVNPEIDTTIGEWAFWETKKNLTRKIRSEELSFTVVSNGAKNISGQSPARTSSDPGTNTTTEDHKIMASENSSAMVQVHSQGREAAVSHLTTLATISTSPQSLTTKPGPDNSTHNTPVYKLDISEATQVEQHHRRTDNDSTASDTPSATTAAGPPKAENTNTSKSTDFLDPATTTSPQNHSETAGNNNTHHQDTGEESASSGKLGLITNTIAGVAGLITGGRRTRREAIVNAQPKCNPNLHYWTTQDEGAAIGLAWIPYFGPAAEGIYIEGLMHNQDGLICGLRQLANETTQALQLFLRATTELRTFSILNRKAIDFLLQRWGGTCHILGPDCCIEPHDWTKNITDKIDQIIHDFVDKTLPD

Test [3] addresses T3, MARV GPdTM (Marburg virus (MARV), UniProt P35253 19-637).
T3 construct: also called Marburg virus glycoprotein GPdTM
T3 sequence: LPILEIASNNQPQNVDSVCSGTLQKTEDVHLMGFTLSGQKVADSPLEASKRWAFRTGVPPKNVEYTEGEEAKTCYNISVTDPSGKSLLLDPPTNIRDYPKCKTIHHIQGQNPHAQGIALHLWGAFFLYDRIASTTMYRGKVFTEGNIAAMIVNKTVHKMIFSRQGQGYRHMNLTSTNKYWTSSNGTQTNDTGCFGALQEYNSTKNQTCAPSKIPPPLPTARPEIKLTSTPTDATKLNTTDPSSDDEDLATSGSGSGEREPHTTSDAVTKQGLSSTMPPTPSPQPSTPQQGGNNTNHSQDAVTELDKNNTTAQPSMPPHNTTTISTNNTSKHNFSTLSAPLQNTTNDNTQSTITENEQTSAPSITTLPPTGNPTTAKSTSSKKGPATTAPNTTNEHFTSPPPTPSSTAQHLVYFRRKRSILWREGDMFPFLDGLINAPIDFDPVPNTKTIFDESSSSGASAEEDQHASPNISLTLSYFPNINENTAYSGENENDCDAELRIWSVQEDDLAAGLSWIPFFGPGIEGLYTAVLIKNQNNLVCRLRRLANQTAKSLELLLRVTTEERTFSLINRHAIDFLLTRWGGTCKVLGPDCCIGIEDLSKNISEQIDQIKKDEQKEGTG
Put plainly: ELISA, purified GPdTM immobilized, serial dilutions of purified mouse mAb. For orientation: ELISA stands for enzyme-linked immunosorbent assay.

Test [4] concerns the target T3, MARV GPdTM.
The target of test [5] is T1, RESTV GPdTM. Put plainly: ELISA, purified GPdTM immobilized, serial dilutions of purified mouse mAb.
The target of test [6] is T2, EBOV GPdTM. Described as above.

Six molecules from patent US20180237502A1 (INTEGRATED BIOTHERAPEUTICS, published 2018) can be followed below.

B1: murine monoclonal antibody 16G8 (antibody, V domains shown)
VH: EVQLQESGPGLVKPGASVKISCKASGYSFTGYYMNWVKQSPEKSLEWIGEINPSTGGTTYNQKFKAKATLTVDKSSSTAYMQLKSLTSEDSAVYYCVRYSHYYGSGSWYFDVWGTGTTVTVSS
VL: DIQMTQSPASLSASVGETVTITCRASENIYSNLAWYQQKQGKSPQLLVNAATNLADGVPSRFSGSGSGTQFSLKINSLQPEDFGSYYCQHFYVTPYMFGSGTKLEIKR
notes: also called m16G8
Regarding B1, the 50% effective concentration (EC50) with RESTV GPdTM [1] and with EBOV GPdTM [2] was over 10 µg/mL in each case. Also, in the test with MARV GPdTM [3], the binding result is listed as “no binding”.

B2: murine monoclonal antibody 2D8 (antibody, V domains shown)
VH: EVQLQESGGELVRPGTSVKISCKASGYTFTNFWLGWIKERPGHGLEWIGDIYPGGHYTNYNENFKGKATLTADTSSNTAYMQVSSLTSEDSAVYFCFTQYYDMDYWGQGTSVTVSS
VL: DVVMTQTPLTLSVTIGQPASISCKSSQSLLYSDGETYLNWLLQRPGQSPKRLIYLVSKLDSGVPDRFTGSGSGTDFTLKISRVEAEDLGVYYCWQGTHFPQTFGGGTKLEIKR
Take B2: the concentration for a half-maximal effect (EC50) with MARV GPdTM [4] is 0.0445 µg/mL; with EBOV GPdTM [2] it was over 10 µg/mL.

B3: murine monoclonal antibody 8C4 (antibody, V domains shown)
VH: EVQLQESGPELKKPGETVKISCKASGYTFTTYGMSWVKQAPGKGLKWMGRINTYSGVPTYADEFKGRFAFSLENSASTAYLQINNLKNEDTATYFCARGDGGHWFANWGQGTLVTVSA
VL: DIQMTQSPSSLSASLGGKVTITCKASQDINKNIAWYQHKPGKGPRLLIWYKSALQPGIPSRFSGSGSGRDYSFSISNLEPEDIATYSCLQYDNLPPTFGGGTKLEIKR
notes: also called m8C4
B3 showed a 50% effective concentration (EC50) in the test with EBOV GPdTM [2] of 0.26 µg/mL. For the same molecule, the binding result with MARV GPdTM [3] and in the test with RESTV GPdTM [5] was “no binding” in each case.

B4: murine monoclonal antibody 21B2 (antibody, V domains shown)
VH: EVQLQESGAELVRPGASVTLSCKTSGYTFTDYEMHWVKQTPVHGLEWIGAIDPETGGTAYNQKFKGKATLTADKSSSTAYMELSRLTSEDSAVYYCTGNYATDYWGQGTSVTVSS
VL: DIVMSQSPSSLAVSAGEKVTMSCKSSQSLFNSRSRKNYLAWYQLKPGQSPKLLIYWASTRESGVPDRFTGSGSGTDFTLTISSVQAEDLAVYYCKQSNYLWTFGGGTKLEIKR
notes: also called m21B2
As for B4, in the test with MARV GPdTM [4], the EC50 turned out to be 0.0688 µg/mL. The binding result with EBOV GPdTM [6] is listed as “no binding”.

B5: murine monoclonal antibody 17C6 (antibody, V domains shown)
VH: EVQLQESGPGLVQPSQSLSITCTVSGFSLTSYGVHWVRQSPGKGLEWLGVIWSGGSTDYNAAFISRLSISKDNSKSQVFFKMNSLQADDTAIYYCARNWFDYDNYYSMDYWGQGTSVTVSS
VL: DIQMTQTTSSLSASLGDRVTISCRASQDISNYLNWYQQKPDGTVKLLIYYTSRLHSGVPSRFSGSGSGTDFSLTISNQEPEDIATYYCQQYSNLPWTFGGGTKLEIKR
Take B5: the EC50 with RESTV GPdTM [1] amounted to 1.56 µg/mL; with EBOV GPdTM [2] it was 0.04 µg/mL.

B6: murine monoclonal antibody 4B8 (antibody, V domains shown)
VH: EVQLQESGPGILQPSQTLSLTCSFSGFSLRTLGMGVGWIRQSSGKGLEWLAHIWWSDENYYNPALKSRLTISKDTSKNQVFLRIANVDTAETATYYCARIAYDGYFDYWGQGTSLTVSS
VL: KFPSQLLLLLLFGIPGDRVTITCKASEDIYNRLAWYQQKPGNAPRLLISGATSLETGVPSRFSGSGSGKDYTLSITSLQTEDVATYYCQQYWTTPWTFGGGTKLEIKR
notes: also called m4B8
In the case of B6, in the test with RESTV GPdTM [1], the half-maximal effective concentration (EC50) came out at 0.157 µg/mL. For the same molecule, the binding result in the test with MARV GPdTM [3] is given as “no binding”.

By EC50 is commonly meant the midpoint of the concentration-response curve.
